Legend:
[1] = system: Myc(3x)-tagged ATRIP
[2] = system: NH2-terminal fragment of ATRIP isolated from bacteria
[3] = system: full length Flag-ATRIP protein purified from insect cells following baculovirus infection

Sequence of Flag-ATR (ATR tagged with a Flag epitope, overexpressed in 293/293T cells) (chain, as listed by the source): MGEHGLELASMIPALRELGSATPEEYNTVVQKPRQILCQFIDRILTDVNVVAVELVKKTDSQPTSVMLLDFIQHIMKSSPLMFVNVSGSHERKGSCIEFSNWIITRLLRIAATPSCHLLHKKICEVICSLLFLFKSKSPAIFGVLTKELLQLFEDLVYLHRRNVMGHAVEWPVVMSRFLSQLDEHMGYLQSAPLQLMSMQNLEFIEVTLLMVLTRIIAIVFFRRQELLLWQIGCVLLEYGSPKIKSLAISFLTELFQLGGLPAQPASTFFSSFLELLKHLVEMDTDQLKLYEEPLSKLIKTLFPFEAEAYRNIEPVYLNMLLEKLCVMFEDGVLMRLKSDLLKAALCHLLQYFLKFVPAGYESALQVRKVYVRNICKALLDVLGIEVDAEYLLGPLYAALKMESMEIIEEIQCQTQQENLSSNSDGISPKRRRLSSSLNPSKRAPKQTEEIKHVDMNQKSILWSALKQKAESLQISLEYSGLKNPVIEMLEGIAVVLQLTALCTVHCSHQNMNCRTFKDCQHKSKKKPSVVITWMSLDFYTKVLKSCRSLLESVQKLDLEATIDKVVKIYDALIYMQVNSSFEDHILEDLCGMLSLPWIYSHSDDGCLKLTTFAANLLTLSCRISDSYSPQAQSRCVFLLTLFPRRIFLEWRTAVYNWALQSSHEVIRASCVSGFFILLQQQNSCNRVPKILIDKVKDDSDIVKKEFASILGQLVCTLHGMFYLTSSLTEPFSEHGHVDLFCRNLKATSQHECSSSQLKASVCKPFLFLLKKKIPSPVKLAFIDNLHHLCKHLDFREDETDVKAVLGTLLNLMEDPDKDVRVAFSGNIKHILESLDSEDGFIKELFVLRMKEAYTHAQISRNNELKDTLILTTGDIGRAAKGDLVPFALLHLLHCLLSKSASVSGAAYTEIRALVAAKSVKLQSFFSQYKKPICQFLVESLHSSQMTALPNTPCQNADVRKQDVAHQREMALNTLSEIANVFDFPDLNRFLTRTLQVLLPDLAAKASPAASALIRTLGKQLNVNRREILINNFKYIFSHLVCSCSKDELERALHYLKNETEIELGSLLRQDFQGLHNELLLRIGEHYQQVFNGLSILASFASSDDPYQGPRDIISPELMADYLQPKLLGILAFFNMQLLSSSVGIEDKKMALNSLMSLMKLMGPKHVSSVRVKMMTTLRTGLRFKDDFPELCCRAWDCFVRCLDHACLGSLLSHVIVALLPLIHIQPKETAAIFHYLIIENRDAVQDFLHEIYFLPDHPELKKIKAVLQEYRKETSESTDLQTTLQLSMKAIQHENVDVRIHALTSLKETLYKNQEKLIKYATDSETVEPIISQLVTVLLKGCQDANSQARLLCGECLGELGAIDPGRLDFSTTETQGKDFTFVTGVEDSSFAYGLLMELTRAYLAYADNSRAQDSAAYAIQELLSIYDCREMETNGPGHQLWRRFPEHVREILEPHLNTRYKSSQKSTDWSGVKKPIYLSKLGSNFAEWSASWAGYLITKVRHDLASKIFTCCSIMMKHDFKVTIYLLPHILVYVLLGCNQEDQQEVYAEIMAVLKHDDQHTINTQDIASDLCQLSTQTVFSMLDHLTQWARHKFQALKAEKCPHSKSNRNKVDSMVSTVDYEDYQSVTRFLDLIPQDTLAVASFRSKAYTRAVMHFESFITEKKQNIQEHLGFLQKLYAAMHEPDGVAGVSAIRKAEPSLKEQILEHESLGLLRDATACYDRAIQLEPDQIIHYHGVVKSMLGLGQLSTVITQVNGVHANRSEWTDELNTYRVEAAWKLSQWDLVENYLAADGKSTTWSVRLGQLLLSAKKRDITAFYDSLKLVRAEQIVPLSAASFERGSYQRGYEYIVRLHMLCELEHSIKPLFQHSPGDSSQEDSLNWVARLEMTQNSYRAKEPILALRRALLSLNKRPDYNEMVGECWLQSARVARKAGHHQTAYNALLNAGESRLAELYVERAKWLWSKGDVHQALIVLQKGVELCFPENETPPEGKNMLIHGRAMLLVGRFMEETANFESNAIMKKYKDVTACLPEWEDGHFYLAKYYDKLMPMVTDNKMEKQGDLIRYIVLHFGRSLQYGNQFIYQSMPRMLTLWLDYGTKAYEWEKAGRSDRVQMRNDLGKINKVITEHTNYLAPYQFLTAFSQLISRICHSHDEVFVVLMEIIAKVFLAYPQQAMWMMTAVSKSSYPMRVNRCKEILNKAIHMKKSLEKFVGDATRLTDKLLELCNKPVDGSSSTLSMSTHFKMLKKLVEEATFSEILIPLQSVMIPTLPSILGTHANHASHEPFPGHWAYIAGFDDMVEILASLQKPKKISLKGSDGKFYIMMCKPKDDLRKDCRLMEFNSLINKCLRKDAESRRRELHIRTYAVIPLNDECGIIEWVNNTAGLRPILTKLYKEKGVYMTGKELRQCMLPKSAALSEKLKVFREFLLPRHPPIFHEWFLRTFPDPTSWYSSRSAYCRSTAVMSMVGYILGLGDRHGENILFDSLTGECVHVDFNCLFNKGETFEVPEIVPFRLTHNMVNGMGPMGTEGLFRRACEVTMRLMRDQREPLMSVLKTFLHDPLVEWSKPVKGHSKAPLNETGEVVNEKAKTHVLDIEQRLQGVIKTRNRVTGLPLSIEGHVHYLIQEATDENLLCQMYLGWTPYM
Sequence of NH2-terminal fragment of ATRIP isolated from bacteria (chain, as listed by the source): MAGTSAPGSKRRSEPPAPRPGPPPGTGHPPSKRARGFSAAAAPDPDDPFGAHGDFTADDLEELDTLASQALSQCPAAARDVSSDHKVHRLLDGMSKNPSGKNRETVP

In the case of “Flag-ATR (ATR tagged with a Flag epitope, overexpressed in 293/293T cells)”, the “^32P-labeling in kinase assay” value [1] is reported as “kinase assays with Flag-ATR immunoprecipitated from cells that also expressed Myc-ATRIP revealed ^32P-labeling of co-immunoprecipitated Myc-ATRIP”, the “phosphorylation in a kinase reaction” value [2] is reported as “recombinant full-length ATRIP isolated from baculovirus-infected insect cells and an NH2-terminal fragment of ATRIP isolated from bacteria could both be phosphorylated when placed in a kinase reaction with ATR isolated from human cells” and the “phosphorylation in a kinase reaction” value [3] is reported as “recombinant full-length ATRIP isolated from baculovirus-infected insect cells and an NH2-terminal fragment of ATRIP isolated from bacteria could both be phosphorylated when placed in a kinase reaction with ATR isolated from human cells”.

— US20030165934
